Where two headings read alike, the source gives them in different places.
How the values were obtained:
[1] = molecular target: T1, human DLL3 on SHP-77 cells (human, UniProt Q9NYJ7 27-618); assay: flow cytometry, SHP-77 cells
T1 construct: also called DLL3-expressing cells (SHP-77)
T1 sequence: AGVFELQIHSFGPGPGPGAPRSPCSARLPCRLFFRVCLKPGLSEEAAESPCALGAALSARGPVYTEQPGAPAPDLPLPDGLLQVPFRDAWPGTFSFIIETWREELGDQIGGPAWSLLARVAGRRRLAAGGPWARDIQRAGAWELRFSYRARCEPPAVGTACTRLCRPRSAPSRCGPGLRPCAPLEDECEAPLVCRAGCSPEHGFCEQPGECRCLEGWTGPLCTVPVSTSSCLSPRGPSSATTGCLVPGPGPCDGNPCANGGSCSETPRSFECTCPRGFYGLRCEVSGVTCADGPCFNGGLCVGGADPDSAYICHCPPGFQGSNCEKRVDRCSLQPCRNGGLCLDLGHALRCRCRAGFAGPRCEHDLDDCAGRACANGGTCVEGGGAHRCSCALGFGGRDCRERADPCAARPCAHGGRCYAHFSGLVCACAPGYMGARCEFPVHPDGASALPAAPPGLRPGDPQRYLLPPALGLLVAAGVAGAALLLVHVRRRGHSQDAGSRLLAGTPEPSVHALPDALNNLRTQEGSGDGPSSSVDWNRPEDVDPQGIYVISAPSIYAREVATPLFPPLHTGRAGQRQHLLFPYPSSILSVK

[2] = molecular target: T1, human DLL3 on SHP-77 cells; assay: flow cytometry, SHP-77 cells; remark: listed apart in the source
Method in brief: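 Trypsinised SHP-77 cells in 1% BSA/PBS were incubated with antibody (100 nM top, 10-fold steps, 7 concentrations) for 1 h at 4° C. Bound antibody was detected with goat anti-human IgG Fc-PE for 0.5 h at 4° C and read as PE mean fluorescence intensity. EC50 and Top MFI were derived from the curves.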

[3] = molecular target: T2, human DLL1 (Sino Biological, Cat. No. 11635-H08H) (human, UniProt O00548 18-545); assay: ELISA, plate coated with human DLL1 at 1 ug/mL, OD 450nm
T2 construct: also called family protein DLL1
T2 sequence: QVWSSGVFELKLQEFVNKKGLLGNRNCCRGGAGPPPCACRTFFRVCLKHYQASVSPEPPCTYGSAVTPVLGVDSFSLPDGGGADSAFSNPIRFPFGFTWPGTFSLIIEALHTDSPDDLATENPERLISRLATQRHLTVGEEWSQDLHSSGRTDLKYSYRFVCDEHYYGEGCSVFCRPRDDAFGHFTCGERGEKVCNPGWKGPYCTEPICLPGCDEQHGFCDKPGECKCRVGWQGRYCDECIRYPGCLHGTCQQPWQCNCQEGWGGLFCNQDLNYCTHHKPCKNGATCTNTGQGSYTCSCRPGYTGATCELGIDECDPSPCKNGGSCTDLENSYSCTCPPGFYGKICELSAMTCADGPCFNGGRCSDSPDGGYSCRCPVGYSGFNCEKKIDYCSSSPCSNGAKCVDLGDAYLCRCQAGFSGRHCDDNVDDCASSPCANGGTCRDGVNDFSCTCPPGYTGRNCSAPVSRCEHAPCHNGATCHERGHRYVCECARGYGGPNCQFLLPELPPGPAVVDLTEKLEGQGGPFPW
Protocol: The antigenic proteins human DLL1 (SinoBiological, cat. No. 11635-H08H) or human DLL4 (SinoBiological, cat. No. 10171-H08H) were dissolved in 1×PBS at a concentration of 1 μg/mL. […] The antigen was washed three times with PBST, 300 μL/well. The antigen was blocked with 1% BSA (in PBST), 200 µL/well, and incubated at 37° C. for 1.5 hours.
Antibodies to be tested were diluted with 1% BSA (in PBS) at a starting concentration of 100 nM, downwards by a 10-fold gradient for 7 concentrations. The plates were washed three times with PBST, 300 μL/well. The diluted antibody was added to an ELISA plate at 100 μL/well and incubated at room temperature for 2 hours. The antibodies were washed three times with PBST, 300 μL/well. The secondary antibodies (goat anti-human IgG Fc for DLL4 (HRP), 1:20000 dilution; HRP goat anti-mouse IgG (H+L) for DLL1, 1:10000 dilution) were diluted with 1% BSA in PBST. The diluted secondary antibodies were added to the ELISA plate at 100 μL/well and incubated at room temperature for 1 hour. The plates were washed 6 times with PBST, 300 μL/well. The developing solution (TMA and TMB 1:1 mixed) was prepared. The developing solution was added to the plate, 100 μL/well, and incubated in the dark for 5 min. 50 μL of ELISA stop solution was added to the plate and shaken well.

B1: hDLL3-3-1 camelid-derived humanized anti-DLL3 antibody (antibody, human IgG1, V domains shown)
VH: EVQLVESGGGLVQPGGSLRLSCAASTYTISSGYMGWFRQAPGKEREGVAAIYIGGSTTLYADSVKGRFTISRDNSKNTLYLQMNSLRAEDTAVYYCAAQLRPNSAYHPLDGRKYNYWGQGTLVTVSS
- EC50 [1]: 0.068 nM
- Top MFI [1]: 1080 MFI

B2: H2-39E2D11 mouse hybridoma-derived humanized anti-DLL3 antibody (antibody, V domains shown)
VH: QVQLVQSGAEVKKPGASVKVSCKASGYTFISYWITWVRQAPGQGLEWMGDIYPGSGSTTNYNEKFKSRVTMTRDTSTSTVYMELSSLRSEDTAVYYCARETTVGGAYAMDYWGQGTLVTVSS
VL: EIVLTQSPATLSLSPGERATLSCRASQSINNNLHWYQQKPGQAPRLLIKYVSQSISGIPARFSGSGSGTDFTLTISSLEPEDFAVYYCQQTNSWPLTFGGGTKLEIK
- EC50 [2]: 1.12 nM
- Top MFI [2]: 1570 MFI
- binding result [3]: no binding (tested: 100 nM)
